According to publication PMC4287557 (PLoS Pathogens, 2015):

Legend:
JRFL gp120 monomer = JRFL gp120 monomer (HIV-1 subtype B strain JRFL, UniProt Q75760); test: BLI; details: both partners purified
16055 gp120 monomer = 16055 gp120 monomer (HIV-1 subtype C strain 16055); test: BLI; details: both partners purified

B1: VRC01 IgG (antibody, V domains shown)
VH: QVQLVQSGGQMKKPGESMRISCRASGYEFIDCTLNWIRLAPGKRPEWMGWLKPRGGAVNYARPLQGRVTMTRDVYSDTAFLELRSLTVDDTAVYFCTRGKNCDYNWDFEHWGRGTPVIVSS
VL: EIVLTQSPGTLSLSPGETAIISCRTSQYGSLAWYQQRPGQAPRLVIYSGSTRAAGIPDRFSGSRWGPDYNLTISNLESGDFGVYYCQQYEFFGQGTKVQVD
notes: also called bNAb VRC01
B1: binds (JRFL gp120 monomer); binds (16055 gp120 monomer).
